Experimental data as given in article PMC4861493, “Functional Evolution in Orthologous Cell-encoded RNA-dependent RNA Polymerases*” (The Journal of Biological Chemistry, 2016).

Molecular target: the molecule itself
Test: crystal structure; QDE-1^Tte catalytic fragment apoenzyme, crystals grown at 30 °C in 100 mM Tris-HCl pH 8.0, 75 mM NaCl, 10% PEG 10,000, 5 mM MgCl2, 6 mM spermine; 3.19 Å; two non-crystallographic dimers (A/B, C/D) in the asymmetric unit

B1: QDE-1^Tte catalytic fragment (RNA-dependent RNA polymerase QDE-1 of Thielavia terrestris) (enzyme)
chain: EVYARLQNIWPKFPRWLHAAPLALAWELTRICLHCKVDLEDPTLRYDPSWATSDMAALWRSLTQLDVFRGKSFPERPSAEAFAAALTGNFESRGNTVVLSASLEFNPSKTGPLFLLDMKPLRFDEGCRLTRRFGPDRFLEVLVPSPTALNAPSILKDGGAAQVIRWLTEKPHSLVGRQWQAFYTKDAGYRKPARELRLGPDAKATFKERVHFFAERGHDFRPAPLRTRAQLPPESPSRRRTEIRVSEMLDWLLQLEQNEYQPHLKLFSRIQLGLSKTFPTVTFEPNQIRHRTDDILSPAGKIMNDGIGRMSRSVARKIRDALGLSDIPSAIQGRMGSAKGMWLMDVADAGDDDWIETYPSQRKWKCDDADALHRTLEIRSVSTELKPAALNLQFLPVLEDRAKDKARMRRAIAARLMNDLKKQFDSQKAAVERPLQFRQWVNECTNSRSERVRHGQVPFLGGLPENKGEVLSFLLNSGFDRRQKYIQDLAFDLQKQRCEVLRTKLNIHVGRSAYMFMVVDFWGVLEENEVHVGFSSKFRDDVDDTTYMLLTDCDVLVARSPAHFPSDIQKVRAVFKPQLHALKDVIVFPAKGDIPLADKLSGGDYDGDMAWVCWDPDIVENFTNADMPKEPDLSAYLGKDKTTFGELVRDTGRTGAAARHEAVYDMINKSFQFAMQPNYLGICTNYKERVCYHNNSVSDGVALLLSTLVGKLVDQSKQGILFDAASWDRLRRERLGGRMSVEDPAYKGDVWAGAGEPRHIVDYLKFAVAKPTIDRELEELHKVMQASRRAGPDDDAAAHSWDPDLAVYFENFKALTAESRSLRAVLEALQNALGAVEHEWKVLMSKGSSSSLTYPEKVRQLHAKWCAIEPRAVGRAGSNRLDAKTAALLEQPFLADRGGAGTSYWALLRASTAFKAYYKTNPKFVWQMAGAQLAFIKAQMSSPGGGGGGGSDGMPLLVTPLMYAGLAPDGRFVKQYLARLECDGSQYPDDDLEGDGEDGGGGGGRGDDVD
notes: QDE-1 ortholog of Thielavia terrestris, catalytic fragment; synthetic ORF from Genscript cloned into pFB-LIC-Bse; the monomer used for crystallization has 1,034 residues including the His tag and the tobacco etch virus protease cleavage site; numbers count on: the catalytic fragment; A TEV protease cleavage site lies between the His tag and the fragment and was not cut in the crystallized …
stoichiometry N: 2
